Changes are numbered by the printed parent chain. Each block holds one binder with its values, some of them ahead of it.
How the values were obtained:
human DLL1 (Alexis) = biological target: T1, human DLL1 (Alexis) (human, UniProt O00548 18-545, limits assumed); experiment: binding ELISA on coated human DLL1 (Example 5.8, Example 7), OD 450 nm
T1 construct: also called hDLL1
T1 sequence (looked up): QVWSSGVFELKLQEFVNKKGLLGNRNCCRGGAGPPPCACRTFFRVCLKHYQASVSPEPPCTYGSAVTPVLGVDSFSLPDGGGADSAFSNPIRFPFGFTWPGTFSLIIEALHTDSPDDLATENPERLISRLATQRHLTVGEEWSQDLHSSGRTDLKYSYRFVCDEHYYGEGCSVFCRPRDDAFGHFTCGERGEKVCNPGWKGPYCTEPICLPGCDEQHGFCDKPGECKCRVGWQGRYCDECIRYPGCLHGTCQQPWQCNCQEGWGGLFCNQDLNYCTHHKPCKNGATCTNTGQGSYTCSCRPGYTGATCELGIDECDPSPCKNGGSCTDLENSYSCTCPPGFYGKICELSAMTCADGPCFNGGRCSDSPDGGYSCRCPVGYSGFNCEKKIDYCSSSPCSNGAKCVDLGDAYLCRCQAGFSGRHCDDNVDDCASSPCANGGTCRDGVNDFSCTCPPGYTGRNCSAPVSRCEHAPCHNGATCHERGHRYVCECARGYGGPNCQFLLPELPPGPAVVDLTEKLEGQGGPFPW

[1] = biological target: T2, cynomolgus DLL4 expressed on CHO cells (cynomolgus, UniProt Q9NR61 27-685 (human entry)); experiment: FACS; summary table, column taken as cDLL4
T2 construct: also called cDLL4; CHO-cDLL4
T2 chain: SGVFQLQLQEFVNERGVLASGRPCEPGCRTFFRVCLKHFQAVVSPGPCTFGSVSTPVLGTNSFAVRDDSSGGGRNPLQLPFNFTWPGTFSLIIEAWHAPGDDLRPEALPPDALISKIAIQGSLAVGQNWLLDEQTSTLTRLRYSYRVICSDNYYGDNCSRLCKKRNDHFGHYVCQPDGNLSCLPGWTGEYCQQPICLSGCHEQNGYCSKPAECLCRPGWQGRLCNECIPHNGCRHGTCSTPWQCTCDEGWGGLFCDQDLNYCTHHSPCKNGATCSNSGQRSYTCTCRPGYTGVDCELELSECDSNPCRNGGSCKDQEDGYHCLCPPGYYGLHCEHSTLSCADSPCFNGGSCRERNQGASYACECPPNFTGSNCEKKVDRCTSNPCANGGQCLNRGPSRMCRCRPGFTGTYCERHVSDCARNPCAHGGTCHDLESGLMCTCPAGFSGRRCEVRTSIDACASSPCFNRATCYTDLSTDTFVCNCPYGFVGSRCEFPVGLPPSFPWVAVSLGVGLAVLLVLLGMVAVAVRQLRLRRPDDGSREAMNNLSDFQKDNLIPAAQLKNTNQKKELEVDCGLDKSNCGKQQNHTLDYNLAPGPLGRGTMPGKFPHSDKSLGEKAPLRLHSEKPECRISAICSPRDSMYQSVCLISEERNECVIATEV

[2] = biological target: T3, recombinant mouse DLL4 (C-terminally His-tagged extracellular domain, R&D Systems) (mouse, UniProt Q9JI71 27-532); experiment: SPR (Biacore); summary table
T3 construct: extracellular domain; also called rmDLL4; mDLL4

[3] = biological target: T4, recombinant human DLL4 (C-terminally His-tagged extracellular domain, R&D Systems) (human, UniProt Q9NR61 25-522, biotinylated in the competition ELISA); experiment: SPR (Biacore); summary table
T4 construct: also called rhDLL4; hDLL4

[4] = biological target: T4, recombinant human DLL4 (C-terminally …); experiment: SPR (Biacore), rhDLL4
Description: (§1) Kinetic analysis to determine the affinity of the DII4-VHH interaction is performed by Surface Plasmon Resonance (SPR) on a Biacore T100 instrument. […] Purified VHHs or Fab fragment are injected for 2 minutes at different concentrations (between 10 and 300 nM) and allowed to dissociate for 20 min at a flow rate of 45 μl/min. Between sample injections, the surfaces are regenerated with 10 mM glycine pH1.5 and 100 mM HCl. HBS-N (Hepes buffer pH7.4) is used as running buffer. If possible, data are evaluated by fitting a 1:1 interaction model (Langmuir binding) onto the binding curves. The affinity constant KD is calculated from resulting association and dissociation rate constants (kₐ) and […].

[5] = biological target: T5, human DLL4 expressed on cells (CHO-hDLL4; HEK293-hDLL4) (human, UniProt Q9NR61 27-685); experiment: FACS; summary table, column taken as hDLL4
T5 construct: full length human DLL4 overexpressed on CHO cells (FMAT, FACS) or HEK293 cells (reporter assay)

[6] = biological target: T3, recombinant mouse DLL4 (C-terminally …); experiment: SPR (Biacore), rmDLL4
[7] = biological target: T4, recombinant human DLL4 (C-terminally …); experiment: binding ELISA on coated recombinant human DLL4 (Example 5.8, Example 7), OD 450 nm
[8] = biological target: T6, mouse DLL4 expressed on CHO cells (mouse, UniProt Q9JI71 27-686); experiment: competition FMAT, labelled hNotch1-Fc on CHO-mDLL4 cells
T6 construct: whole, on cells; also called mDLL4; CHO-mDLL4

[9] = biological target: T5, human DLL4 expressed on cells …; experiment: FACS on CHO-hDLL4 cells
human Jagged-1 (Alexis) = biological target: T7, human Jagged-1 (Alexis) (human, UniProt P78504 34-1067, limits assumed); experiment: binding ELISA on coated human Jagged-1 (Example 5.8, Example 7), OD 405 nm
T7 construct: also called hJag-1; hJAG1

[10] = biological target: T4, recombinant human DLL4 (C-terminally …); experiment: competition ELISA hDLL4/hNotch1-Fc; summary table
[11] = biological target: T5, human DLL4 expressed on cells …; experiment: competition FMAT, labelled hNotch1-Fc on CHO-hDLL4 cells
[12] = biological target: T4, recombinant human DLL4 (C-terminally …); experiment: competition ELISA, biotinylated hDLL4 to coated hNotch1-Fc
[13] = biological target: T6, mouse DLL4 expressed on CHO cells; experiment: competition FMAT CHO-mDLL4; summary table
[14] = biological target: T5, human DLL4 expressed on cells …; experiment: competition FMAT CHO-hDLL4; summary table
[15] = biological target: T2, cynomolgus DLL4 expressed on CHO cells; experiment: FACS on CHO-cDLL4 cells
[16] = biological target: T5, human DLL4 expressed on cells …; experiment: cell-based or functional assay
[17] = biological target: T3, recombinant mouse DLL4 (C-terminally …); experiment: binding ELISA on coated recombinant mouse DLL4 (Example 5.8, Example 7), OD 450 nm
[18] = biological target: T5, human DLL4 expressed on cells …; experiment: cell-based or functional assay; remark: listed apart in the source
[19] = biological target: T4, recombinant human DLL4 (C-terminally …); experiment: SPR (Biacore), recombinant human DLL4
Description: as §1

[20] = biological target: T6, mouse DLL4 expressed on CHO cells; experiment: competition FMAT, labelled hNotch1-Fc on CHO-mDLL4 cells; remark: listed apart in the source
[21] = biological target: T5, human DLL4 expressed on cells …; experiment: competition FMAT, labelled hNotch1-Fc on CHO-hDLL4 cells; remark: listed apart in the source
[22] = biological target: T4, recombinant human DLL4 (C-terminally …); experiment: cell-based or functional assay
recombinant human DLL4 [23] = biological target: T8, recombinant human DLL4 (human, UniProt Q9NR61 25-522); experiment: Biacore off-rate, periplasmic extract
T8 construct: also called rhDLL4; hDLL4

recombinant human DLL4 [24] = biological target: T8, recombinant human DLL4; experiment: hDLL4 ELISA screen, periplasmic extract
recombinant human DLL4 [25] = biological target: T8, recombinant human DLL4; experiment: AlphaScreen biot-hDLL4/hNotch1-Fc, periplasmic extract

T6 sequence (Q9JI71 27-686): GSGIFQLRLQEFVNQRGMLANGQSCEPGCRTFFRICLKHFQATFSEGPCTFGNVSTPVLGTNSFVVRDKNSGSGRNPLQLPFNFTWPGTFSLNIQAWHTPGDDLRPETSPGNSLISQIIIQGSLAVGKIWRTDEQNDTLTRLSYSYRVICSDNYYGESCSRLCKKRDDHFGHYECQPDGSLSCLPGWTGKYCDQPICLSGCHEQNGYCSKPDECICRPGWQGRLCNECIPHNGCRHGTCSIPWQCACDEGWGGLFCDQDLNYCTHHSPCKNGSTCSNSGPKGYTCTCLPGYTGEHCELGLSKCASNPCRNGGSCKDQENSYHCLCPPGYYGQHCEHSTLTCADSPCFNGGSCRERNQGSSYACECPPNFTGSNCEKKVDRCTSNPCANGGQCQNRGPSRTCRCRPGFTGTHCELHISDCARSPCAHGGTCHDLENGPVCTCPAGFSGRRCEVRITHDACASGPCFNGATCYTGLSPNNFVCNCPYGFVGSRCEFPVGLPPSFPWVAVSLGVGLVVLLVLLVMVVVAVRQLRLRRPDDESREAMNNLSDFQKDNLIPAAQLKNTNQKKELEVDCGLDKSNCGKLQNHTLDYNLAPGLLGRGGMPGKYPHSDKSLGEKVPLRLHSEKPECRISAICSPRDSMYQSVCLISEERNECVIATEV
T3 sequence (Q9JI71 27-532): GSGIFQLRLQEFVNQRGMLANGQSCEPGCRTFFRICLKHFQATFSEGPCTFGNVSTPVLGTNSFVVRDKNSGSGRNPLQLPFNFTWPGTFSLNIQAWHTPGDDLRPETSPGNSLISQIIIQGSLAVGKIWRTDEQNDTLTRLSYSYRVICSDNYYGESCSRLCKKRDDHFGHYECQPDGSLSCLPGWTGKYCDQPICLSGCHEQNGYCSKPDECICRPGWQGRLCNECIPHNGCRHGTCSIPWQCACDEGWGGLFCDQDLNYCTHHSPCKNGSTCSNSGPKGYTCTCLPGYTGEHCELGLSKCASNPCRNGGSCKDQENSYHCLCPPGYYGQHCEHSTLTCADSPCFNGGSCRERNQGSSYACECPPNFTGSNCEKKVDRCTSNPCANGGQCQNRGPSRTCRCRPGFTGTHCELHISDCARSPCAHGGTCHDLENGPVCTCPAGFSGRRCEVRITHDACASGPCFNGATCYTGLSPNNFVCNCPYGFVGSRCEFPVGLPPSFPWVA

B1: DLLBII115A05 (VHH, not shown: small tags and cut ends)
VHH: EVQLVESGGGLVQPGGSLRLSCAASGFTFGSYDMSWVRRSPGKGPEWVSSINSGGGSTYYADFVKGRFTISRDNAKNTLYLQMNSLKPEDTAVYYCAADRYIRARQGDYWGAYEYDYWGQGTQVTVSS
notes: parent VHH; also called 115A05 (wt); 115A5
binding result (human DLL1 (Alexis)): no binding (tested: log[M] -6.1 (about 8e-7 M))
EC50 [1]: 13.8 nM
Kd [2]: 53 nM
Kd [3]: 16 nM
Kd [4]: 16 nM
koff [4]: 0.004 s⁻¹
kon [4]: 250000 M⁻¹ s⁻¹
EC50 [5]: 11.3 nM
Kd [6]: 53 nM
koff [6]: 0.0091 s⁻¹
kon [6]: 170000 M⁻¹ s⁻¹
EC50 (read off the curve) [7]: ~2 nM
IC50 [8]: 349 nM
EC50 [9]: 11.3 nM
binding result (human Jagged-1 (Alexis)): no binding (tested: log[M] -6.1 (about 8e-7 M))
IC50 [10]: 7.5 nM
IC50 [11]: 107 nM
IC50 [12]: 7.5 nM
IC50 [13]: 349 nM
IC50 [14]: 107 nM
EC50 [15]: 13.8 nM
IC50, DLL4-mediated reporter assay [16]: 1340 nM
EC50 (read off the curve) [17]: ~10 nM

B5: DLLBII28B06 (VHH)
VHH: EVQLVESGGGLVQAGGSLRLSCAASGSTFSTYAMGWYRQDPGNQRELVAAISSDGSTHYADSVKGRFTISRDNAKNTVYLQMNSLKPEDTAVYYCYAPVKVAGLEYDYWGQGTQVTVSS
koff (recombinant human DLL4 [23]): 0.0075 s⁻¹
% inh (recombinant human DLL4 [24]): 23%
% inh (recombinant human DLL4 [25]): 54%

B6: DLLBII018 (VHH, not shown: small tags and cut ends)
VHH: EVQLVESGGGLVQPGGSLRLSCAASGRTFSSYAMAWYRQAPGKEREYVAAIRWSGGTAYYADSVKGRFTISRDNAKNTVYLQMNSLRPEDTAVYYCANRAPDTRLAPYEYDHWGQGTLVTVSS
IC50, DLL4-mediated reporter assay (hDLL4) [18]: 136 nM
Kd [19]: 0.2 nM
koff [19]: 9.4e-05 s⁻¹
kon [19]: 450000 M⁻¹ s⁻¹
IC50 [20]: 15.4 nM
IC50 [21]: 11 nM
IC50, DLL4-mediated HUVEC proliferation assay [22]: 5.3 nM
Inhibition (%), DLL4-mediated HUVEC proliferation assay [22]: 100%

B7: DLLBII19F12 (VHH)
VHH: EVQLVESGGGLVQAGGSLRLSCTASGSTFTSYAMGWYRQAPGKQRELVAAISSDDSTYYADCVKGRFTISRDNAKNTVYLQMNSLKPEDTAVYYCNAPHSDYDEEAPSDFGSWGQGTQVTVSS
koff (recombinant human DLL4 [23]): 0.00049 s⁻¹
% inh (recombinant human DLL4 [24]): 98%
% inh (recombinant human DLL4 [25]): 98%

Second part, the binder after the results:

IC50, DLL4-mediated reporter assay (hDLL4) [18]: 16 nM
Kd [19]: 1.8 nM
koff [19]: 0.00081 s⁻¹
kon [19]: 450000 M⁻¹ s⁻¹
IC50 [20]: 43.8 nM
IC50 [21]: 6.2 nM
IC50, DLL4-mediated HUVEC proliferation assay [22]: 14.4 nM
Inhibition (%), DLL4-mediated HUVEC proliferation assay [22]: 100%
B2: DLLBII039 (VHH, not shown: small tags and cut ends)
VHH: B1 VHH with F29I, S40A, N52S, F63Y, K87R, R103W, D108E, Q123L

IC50, DLL4-mediated reporter assay (hDLL4) [18]: 78 nM
Kd [19]: 0.8 nM
koff [19]: 0.00055 s⁻¹
kon [19]: 660000 M⁻¹ s⁻¹
IC50 [20]: 44.7 nM
IC50 [21]: 9.7 nM
IC50, DLL4-mediated HUVEC proliferation assay [22]: 7.6 nM
Inhibition (%), DLL4-mediated HUVEC proliferation assay [22]: 100%
B3: DLLBII036 (VHH, not shown: small tags and cut ends)
VHH: B1 VHH with S40A, N52S, F63Y, K87R, R103W, D108E, Q123L

koff (recombinant human DLL4 [23]): 0.00092 s⁻¹
% inh (recombinant human DLL4 [24]): 86%
% inh (recombinant human DLL4 [25]): 75%
B4: DLLBII33C05 (VHH)
VHH: EVQLVESGGGLVQAGGSLRLSCAASGFTLDNYVIGWFRQAPGKEREEVSCISSSGGSTDYLDSVKGRFTISRDNAKNTVYLQMNSLKPEDTAVYYCAADSLPCYYDKMVYDYWGQGTQVTVSS

— patent US20140120095A1 (Boehringer Ingelheim, published 2014)
